Reference: the RNAGym collection of RNA variant scans (doi:10.7554/elife.80360)

B1: CPEB3 Ribozyme (parent)
chain: GGGGGCCACAGCAGAAGCGUUCACGUCGCGGCCCCUGUCAGAUUCUGGUGAAUCUGCGAAUUCUGCUGU

Variants of: B1
Experiment: self-cleavage, relative activity (ratio to wild type); higher = more cleavage; co-transcriptional

Variant	self-cleavage
U36C U62A	0.654
U36C U62G	0.581
U36C C66G	0.621
U36C C66A	0.603
U36C U44C	0.688
U36C U44G	0.859
U36C U44A	0.854
U36A G68C	0.227
U36A G68A	0.317
U36A G41U	0.251
U36A G41C	0.22
U36G A40G	0.219
U36G A40C	0.236
U36C G65C	0.414
U36C G65A	0.67
U36C G47A	0.953
U36C G47U	0.892
U36C G47C	0.993
U36A U61C	0.171
U36G A52C	0.318
U36G A52G	0.296
U36G A52U	0.271
U36C A51U	0.879
U36C A51C	0.88

Variant	self-cleavage
U36G C45G	0.251
U36G C45A	0.276
U36A G47C	0.269
U36A G47A	0.295
U36A G47U	0.321
U36C U64C	0.823
U36C U64G	0.762
U36C A42C	0.732
U36C A42G	0.77
U36C A42U	0.869
U36C C45A	0.865
U36C C45G	0.866
U36A U55A	0.209
U36A U55G	0.289
U36A U55C	0.181
U36C G50C	0.895
C35U U69C	1.08
C35U U69G	1.01
U36G C39G	0.24
U36G C39A	0.204
U36G C39U	0.218
U36C U69G	1.02
U36C U69C	1.05
U36A U67A	0.246

Variant	self-cleavage
U36A U67G	0.181
U36A U67C	0.215
U36G C54U	0.293
U36C U67G	0.949
U36A C54U	0.35
U36C G37C	0.237
U36C G37U	0.287
U36A A40C	0.223
U36A A40G	0.248
C35U U64C	0.836
C35U U64A	0.83
U36A C63G	0.213
U36A C63U	0.185
U36A G56C	0.201
U36A G56U	0.177
U36A U46A	0.164
U36A U46G	0.255
U36A A42U	0.242
U36A A42C	0.191
C35U U61G	0.854
C35U U61A	0.596
C35U U62A	0.813
C35U U62G	0.804
U36A U62G	0.249

Variant	self-cleavage
U36A U62A	0.218
C35U U67C	0.979
C35U U67G	1.03
U36A U44C	0.295
U36A G58U	0.253
U36A G58C	0.226
U36A G50A	0.213
U36A G50C	0.249
U36A U38G	0.185
U36A U38A	0.25
U36A U38C	0.216
U36A C57A	0.213
U36A C57G	0.231
U36A C57U	0.233
U36C A60G	0.636
U36C A60U	0.376
U36C A60C	0.268
U36C G48C	0.948
U36C G48U	0.981
U36C G48A	0.94
U36C U46C	0.987
U36C U46A	0.922
U36A U69C	0.558
U36A U69A	0.377

Variant	self-cleavage
U36A A51C	0.242
U36A A51U	0.306
U36A G65U	0.203
U36A G65C	0.31
U36C A40C	0.506
U36C A40G	0.858
U36C A40U	0.64
U36C U53A	0.767
U36C U53G	0.544
U36C U53C	0.806
U36G C57G	0.109
U36G A42G	0.225
U36A U43G	0.214
U36A U43A	0.249
U36C C57A	0.251
U36C C57G	0.3
U36A U49A	0.263
U36A U49G	0.225
U36C C63G	0.548
U36C C63A	0.587
U36A A52G	0.178
U36A A52U	0.166
U36C U61A	0.557
U36C U61C	0.524

Variant	self-cleavage
U36A U53A	0.282
U36A U53G	0.286
U36C G68C	0.991
U36C G68A	0.932
U36C U43C	0.856
U36C U43A	0.787
U36C A59U	0.448
U36C A59C	0.42
U36C A59G	0.962
U36A C66A	0.294
U36A C66U	0.187
U36A U64A	0.232
U36A U64G	0.202
U36C C39G	0.847
U36A C39A	0.233
U36C G56A	0.814
U36C G56C	0.46
U36C G56U	0.696
U36G A60U	0.181
U36C G58U	0.963
U36C U38G	0.244
U36G C63U	0.315
U36G C63G	0.181
U36C U49A	0.923

Variant	self-cleavage
U36C U49C	0.863
U36C U49G	0.848
U36C C54A	0.736
U36C C54U	0.973
U36C C54G	0.765
U36A A59G	0.263
U36A A59C	0.157
U36C G41A	0.507
U36C G41C	0.552
U36C G41U	0.664
U36G C66A	0.232
U36A A60G	0.269
U36A A60C	0.19
U36A A60U	0.242
U36G A59G	0.238
U36G A59C	0.182
U36G A59U	0.189
U36C A52U	0.915
U36C A52C	0.997
U36A G48C	0.291
U36A G48U	0.311
U36A C45A	0.158
U36A C45G	0.282
